Data set [1] has as its target T1, DNA polymerase alpha catalytic domain (PolαCD) (human, UniProt P09884 338-1250). As to the kind of experiment: BLI.
In data set [2] the target is T1, DNA polymerase alpha catalytic domain …. The experiment in a line: BLI. This is another data set of the same source. A general note: BLI is a label-free optical method that tracks binding on a fibre tip over time.
Data set [3] has the same target. The experiment in a line: BLI. The source holds these as a separate data set.
Data set [4] has the same target. As to the kind of experiment: BLI. This is another data set of the same source.
The target is the same in data set [5]. As to the kind of experiment: BLI. The source holds these as a separate data set.
Data set [6] has the same target. As to the kind of experiment: crystal structure.

Like-named read-outs stand apart in the source and are kept apart here.

T1 sequence (P09884 338-1250): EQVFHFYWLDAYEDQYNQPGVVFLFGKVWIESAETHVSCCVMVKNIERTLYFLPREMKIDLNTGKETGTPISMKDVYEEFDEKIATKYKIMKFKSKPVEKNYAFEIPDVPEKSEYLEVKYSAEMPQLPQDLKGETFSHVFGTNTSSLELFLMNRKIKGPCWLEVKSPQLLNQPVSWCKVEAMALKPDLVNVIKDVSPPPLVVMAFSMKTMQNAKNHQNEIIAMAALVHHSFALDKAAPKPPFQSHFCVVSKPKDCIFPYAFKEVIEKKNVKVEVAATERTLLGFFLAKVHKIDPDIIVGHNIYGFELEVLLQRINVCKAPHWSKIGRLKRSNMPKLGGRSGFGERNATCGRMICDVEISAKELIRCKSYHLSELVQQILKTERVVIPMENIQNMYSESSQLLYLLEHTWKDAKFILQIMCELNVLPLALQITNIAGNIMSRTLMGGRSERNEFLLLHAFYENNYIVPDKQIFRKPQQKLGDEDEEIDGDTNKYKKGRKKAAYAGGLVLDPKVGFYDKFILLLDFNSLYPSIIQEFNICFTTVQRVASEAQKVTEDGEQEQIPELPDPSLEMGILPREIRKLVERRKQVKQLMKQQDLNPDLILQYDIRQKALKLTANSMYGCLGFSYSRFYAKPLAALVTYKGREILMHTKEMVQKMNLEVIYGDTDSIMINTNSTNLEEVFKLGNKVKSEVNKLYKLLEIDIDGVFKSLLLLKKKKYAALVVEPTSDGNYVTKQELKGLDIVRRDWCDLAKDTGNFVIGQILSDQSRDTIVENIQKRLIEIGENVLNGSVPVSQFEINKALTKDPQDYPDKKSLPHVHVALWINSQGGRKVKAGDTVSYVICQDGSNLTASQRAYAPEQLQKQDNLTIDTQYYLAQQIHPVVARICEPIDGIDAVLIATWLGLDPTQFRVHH

B1: T-C mismatch template:primer (dsDNA)
DNA 1: AATACATAATCGCTCCAGGCAAT
DNA 2: GCCTGGAGCGC
modifications: primer 3'-terminal dideoxycytidine
Take B1: the Kd in data set [1] stood at 14.2 ± 0.13 nM; in data set [2], 462 ± 43 nM.

B2: G-C template:primer (matched) (dsDNA)
DNA 1: AATACATAAGCGCTCCAGGCAAT
DNA 2: GCCTGGAGCGC
modifications: primer 3'-terminal dideoxycytidine
Consider B2, for which the Kd in data set [1] turned out to be 40.8 ± 1.6 nM; in data set [2], 1400 ± 130 nM; in data set [3] it was 1200 nM; in data set [4], 30.2 ± 1.3 nM; in data set [5] it was 168 ± 17 nM.

B3: C-C mismatch template:primer (dsDNA)
DNA 1: AATACATAACCGCTCCAGGCAAT
DNA 2: GCCTGGAGCGC
modifications: primer 3'-terminal dideoxycytidine
On to B3, for which the Kd in data set [1] is 11.7 ± 0.42 nM; in data set [2] it was 646 ± 11 nM.

B4: T-C mismatch DNA template:RNA primer (crystal) (DNA:RNA)
DNA: ATAGTCGCTCCAGGC
RNA: GCCUGGAGCGC
modifications: RNA primer with 3'-terminal dideoxycytidine
B4: the binding result in data set [6] is listed as “binds”.

B5: A-C mismatch template:primer (dsDNA)
DNA 1: AATACATAAACGCTCCAGGCAAT
DNA 2: GCCTGGAGCGC
modifications: primer 3'-terminal dideoxycytidine
Regarding B5, the Kd in data set [1] came to 12.6 ± 1.3 nM; in data set [2] it was 987 ± 18 nM.

For orientation: Kd means the equilibrium constant for the complex coming apart.
